The supplement of paper PMC9233669
Variants at the floor of the assay were thinned out.

Columns and labels:
biotinyl-Leu-oxazolone = assay: self-aminoacylation, catalytic enhancement (BLO) (fold over background); higher = more active; k-Seq, kA / k0A0; sequences stand for … in GGGAAUGGAUCCACAUCUACGAAUUC…UUCACUGCAGACUUGACGAAGCUG
How it was run: (§1)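 The uncatalyzed rate is the low-activity peak of a bimodal Gaussian fit, and catalytic enhancement is median kA divided by it. The kA values came from pseudo-first-order fits, with 1000 bootstraps, of per-sequence fraction reacted measured by streptavidin capture, triplicate qPCR and Illumina sequencing. Mutagenized RNA pools with a 21-nt variable region (0.43 μM) were reacted with each biotinyl-aminoacyl-oxazolone at 2–1250 μM in 50 μL HEPES/NaCl/KCl/MgCl2/CaCl2 buffer with 5% acetonitrile, pH 6.9–7.0, for 90 minutes at room temperature.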

biotinyl-Ile-oxazolone = assay: self-aminoacylation, catalytic enhancement (BIO) (fold over background); higher = more active; k-Seq, kA / k0A0; sequences stand for … in GGGAAUGGAUCCACAUCUACGAAUUC…UUCACUGCAGACUUGACGAAGCUG
How it was run: as §1

biotinyl-Phe-oxazolone = assay: self-aminoacylation, catalytic enhancement (BFO) (fold over background); higher = more active; k-Seq, kA / k0A0; sequences stand for … in GGGAAUGGAUCCACAUCUACGAAUUC…UUCACUGCAGACUUGACGAAGCUG
How it was run: as §1

biotinyl-Trp-oxazolone = assay: self-aminoacylation, catalytic enhancement (BWO) (fold over background); higher = more active; k-Seq, kA / k0A0; sequences stand for … in GGGAAUGGAUCCACAUCUACGAAUUC…UUCACUGCAGACUUGACGAAGCUG
How it was run: as §1

biotinyl-Met-oxazolone = assay: self-aminoacylation, catalytic enhancement (BMO) (fold over background); higher = more active; k-Seq, kA / k0A0; sequences stand for … in GGGAAUGGAUCCACAUCUACGAAUUC…UUCACUGCAGACUUGACGAAGCUG
How it was run: as §1

biotinyl-Val-oxazolone = assay: self-aminoacylation, catalytic enhancement (BVO) (fold over background); higher = more active; k-Seq, kA / k0A0; sequences stand for … in GGGAAUGGAUCCACAUCUACGAAUUC…UUCACUGCAGACUUGACGAAGCUG
How it was run: as §1

Row | Sequence | self-aminoacylation (biotinyl-Leu-oxazolone) | self-aminoacylation (biotinyl-Ile-oxazolone) | self-aminoacylation (biotinyl-Phe-oxazolone) | self-aminoacylation (biotinyl-Trp-oxazolone) | self-aminoacylation (biotinyl-Met-oxazolone) | self-aminoacylation (biotinyl-Val-oxazolone)
1 | AUUCACCUAGGUCUUCGCGUG [Fam2.2 aminoacylation ribozyme variant] | 4.5 | 2.95 | 16.6 | 3.32 | 4.3 | 3.96
2 | AUUCACCUAGGUCUUCGGCUG [Fam2.2 aminoacylation ribozyme variant] | 2.59 | 2.12 | 6.94 | 1.46 | 1.8 | 1.87
3 | AUUCACCUAGGUCUUCGGGUA [Fam2.2 aminoacylation ribozyme variant] | 3.22 | 3.31 | 17.4 | 3.79 | 3.75 | 3.6
4 | AUUCACCUAGGUGAUCGGGGG [Fam2.2 aminoacylation ribozyme variant] | 5.33 | 5.84 | 21.6 | 7.47 | 4.53 | 4.72
5 | AUUCACCUAGGUGAUUGGGUG [Fam2.2 aminoacylation ribozyme variant] | 3.06 | 2.17 | 13.2 | 2.96 | 2.68 | 2.41
6 | AUUCACCUAGGUGGUCGGGUG [Fam2.2 aminoacylation ribozyme variant] | 4.09 | 2.49 | 18.3 | 3.42 | 2.41 | 2.77
7 | AUUCACCUAGGUUGUCGGGUG [Fam2.2 aminoacylation ribozyme variant] | 5.86 | 3.53 | 27.3 | 4.65 | 4.89 | 3.2
8 | AUUCACCUAGUCCAUCGGGUG [Fam2.2 aminoacylation ribozyme variant] | 6.98 | 3.54 | 40.5 | 6.38 | 6.16 | 3.82
9 | AUUCACCUAGUUCAUCAGGUG [Fam2.2 aminoacylation ribozyme variant] | 0.986 | 0.872 | 0.467 | 0.893 | 0.796 | 0.934
10 | AUUCACCUAGUUCAUCCGGUG [Fam2.2 aminoacylation ribozyme variant] | 3.89 | 3.1 | 21.9 | 3.54 | 3.23 | 2.52
11 | AUUCACCUAGUUCAUCGUGUG [Fam2.2 aminoacylation ribozyme variant] | 1.25 | 0.937 | 4.05 | 1.1 | 1.2 | 1.11
12 | AUUCACCUAUAUCAUCGGGUG [Fam2.2 aminoacylation ribozyme variant] | 6.53 | 2.84 | 32.7 | 4.4 | 4.73 | 2.56
13 | AUUCACCUAUGCCAUCGGGUG [Fam2.2 aminoacylation ribozyme variant] | 3.21 | 1.5 | 18.9 | 3.42 | 2.85 | 1.98
14 | AUUCACCUAUGGCAUCGGGUG [Fam2.2 aminoacylation ribozyme variant] | 2.84 | 1.96 | 11.9 | 2.25 | 2.41 | 1.94
15 | AUUCACCUAUGUCAACGGGUG [Fam2.2 aminoacylation ribozyme variant] | 3.35 | 1.83 | 16.8 | 2.52 | 2.83 | 2.01
16 | AUUCACCUAUGUCACCGGGUG [Fam2.2 aminoacylation ribozyme variant] | 4.89 | 2.34 | 19 | 3.43 | 3.22 | 2.27
17 | AUUCACCUAUGUCAGCGGGUG [Fam2.2 aminoacylation ribozyme variant] | 4.78 | 2.87 | 28.7 | 3.73 | 3.6 | 2.33
18 | AUUCACCUAUGUCAUCGAGUG [Fam2.2 aminoacylation ribozyme variant] | 5.42 | 3.35 | 17.2 | 4.95 | 4.64 | 2.98
19 | AUUCACCUAUGUCAUCGGCUG [Fam2.2 aminoacylation ribozyme variant] | 1.26 | 1.38 | 0.644 | 0.681 | 1.21 | 1.3
20 | AUUCACCUAUGUCAUCGGGUU [Fam2.2 aminoacylation ribozyme variant] | 1.86 | 1.35 | 0.724 | 1.75 | 1.48 | 1.61
21 | AUUCACCUAUGUCCUCGGGUG [Fam2.2 aminoacylation ribozyme variant] | 4.03 | 2.17 | 21.6 | 3.42 | 3.04 | 2.04
22 | AUUCACCUAUGUCGUCGGGUG [Fam2.2 aminoacylation ribozyme variant] | 1.44 | 1.19 | 6.21 | 1.3 | 1.28 | 1.15
23 | AUUCACCUAUGUGAUCGGGUG [Fam2.2 aminoacylation ribozyme variant] | 2.74 | 1.69 | 15.9 | 2.25 | 2.14 | 1.99
24 | AUUCACCUCCGUCAUCGGGUG [Fam2.2 aminoacylation ribozyme variant] | 10.8 | 5.62 | 70.3 | 8.32 | 8.59 | 4.91
25 | AUUCACCUCGGUCAACGGGUG [Fam2.2 aminoacylation ribozyme variant] | 5.39 | 2.44 | 27.8 | 3.36 | 3.98 | 2.82
26 | AUUCACCUCGGUCAUAGGGUG [Fam2.2 aminoacylation ribozyme variant] | 1.76 | 1.11 | 5.66 | 1.43 | 1.41 | 1.19
